From patent publication US20030113711A1, “Protein kinase peptide substrate determination using peptide libraries” (priority 2001, published 2003)

Experiments:
Type in all cases: biochemical
[1] = substrate: CC[C@H](C)[C@H](NC(=O)[C@H](CC(=O)O)NC(=O)[C@H](CCC(=O)O)NC(=O)[C@H](CCSC)NC(=O)CNC(=O)CNC(=O)CCCCCNC(=O)CCCC[C@@H]1SC[C@@H]2NC(=O)N[C@@H]21)C(=O)N[C@@H](Cc1ccc(O)cc1)C(=O)N[C@@H](Cc1ccccc1)C(=O)N[C@@H](CCC(=O)O)C(=O)N[C@@H](Cc1ccccc1)C(=O)N[C@@H](CCSC)C(=O)NCC(=O)NCC(=O)N[C@@H](CCCCN)C(=O)N[C@@H](CCCCN)C(=O)N[C@@H](CCCCN)C(N)=O; assay: Two-substrate kinetic comparison with known substrate, peptide and ATP varied simultaneously; conditions: other: ErbB-4; peptide and ATP concentrations varied simultaneously, two-substrate fit
Procedure: (§1) In a separate experiment, the kinetic parameters of both peptide number 1 shown in Table 2, and a peptide with the sequence Biotin-Ahx-G-G-M-E-D-I-Y-F-E-F-M-G-G-K-K-K-amide (SEQ ID NO: 17), which has been previously identified as an ErbB-2 substrate (Jan et. al., (2000), Biochemistry 39: 9786-803), were determined and compared. In this experiment, both peptide and ATP concentrations were varied, and the resulting data was simultaneously fit to an equation representing a two-substrate enzyme reaction using SIGMAPLOT®. Data was collected using the kinases ErbB-2, ErbB-4, and EGFR. The results of this experiment are shown in Table 3 and indicate that for all three kinases tested, peptide number 1 shown in Table 2 is kinetically at least equivalent (based on kcat/Km values) to the known peptide substrate identified by Jan et al.

[2] = substrate: CC[C@H](C)[C@H](NC(=O)[C@H](CCC(=O)O)NC(=O)[C@H](CCC(=O)O)NC(=O)[C@H](Cc1c[nH]cn1)NC(=O)[C@H](C)NC(=O)[C@H](CCCNC(=N)N)NC(=O)CCCCCNC(=O)CCCC[C@@H]1SC[C@@H]2NC(=O)N[C@@H]21)C(=O)N[C@@H](Cc1ccc(O)cc1)C(=O)N[C@@H](Cc1c[nH]cn1)C(=O)N[C@@H](Cc1ccccc1)C(=O)N[C@@H](Cc1ccccc1)C(=O)N[C@@H](Cc1ccccc1)C(=O)N[C@@H](C)C(=O)N[C@@H](CCCCN)C(=O)N[C@@H](CCCCN)C(=O)N[C@@H](CCCCN)C(N)=O; assay: as above; conditions: other: ErbB-4; peptide and ATP concentrations varied simultaneously, two-substrate fit
Procedure: as §1

[3] = substrate: CC[C@H](C)[C@H](NC(=O)[C@H](CCC(=O)O)NC(=O)[C@H](Cc1c[nH]cn1)NC(=O)[C@H](Cc1c[nH]cn1)NC(=O)[C@H](C)NC(=O)[C@H](CCCNC(=N)N)NC(=O)CCCCCNC(=O)CCCC[C@@H]1SC[C@@H]2NC(=O)N[C@@H]21)C(=O)N[C@@H](Cc1ccc(O)cc1)C(=O)N[C@@H](Cc1c[nH]cn1)C(=O)N[C@@H](Cc1ccccc1)C(=O)N[C@@H](Cc1ccccc1)C(=O)N[C@@H](Cc1ccccc1)C(=O)N[C@@H](C)C(=O)N[C@@H](CCCCN)C(=O)N[C@@H](CCCCN)C(=O)N[C@@H](CCCCN)C(N)=O; assay: Kinetic evaluation of peptide substrates, varying peptide at fixed ATP (phosphocellulose filter, [γ-33P]ATP); conditions: other: ErbB-4; Km for peptide; ATP concentration >10 × Km (200 μM ATP); pH 7.5; 23.0 °C
Procedure: (§2) Peptide sequences identified as preferred substrates for ErbB-2 using the methods described in Laboratory Example 3 were synthesized. The kcat and Km values for each peptide were determined as follows, using the kinases ErbB-2, ErbB-4, and EGFR.
(§3) Reactions were performed in 96-well polystyrene round bottom plates in a final volume of 45 μL. Reaction mixtures contained 50 mM MOPS, pH 7.5, 10 mM MnCl2, 1 mM dithiothreitol (DTT), 200 μM ATP, 1.0 μCi [γ-^33P] ATP, and varying concentrations of peptide. The reaction was initiated by adding the purified kinase of interest and halted after 10 minutes at 23° C. (room temperature) by adding 45 μL of 0.5% phosphoric acid in water. A 75 μL aliquot of the halted reaction mixture was then transferred to MAPH phosphocellulose filter plates (Millipore, Bedford, Mass.). The plates were filtered three times with 0.2 mL of 0.5 percent phosphoric acid. Scintillation cocktail (50 μL) was added to each well, and the plate was analyzed by counting in a Packard TOPCOUNT® scintillation counter (Packard Instrument Co., Meriden, Conn.). In these assays, the concentration of ATP was greater than ten-fold higher than the Km for ATP, which permitted the kinetic data to be treated as a pseudo-first-order reaction with varying peptide concentration. All experiments were performed in quadruplicate and the average value for each data point was analyzed. The Km and Vmax values were calculated by fitting the data to the Henri-Michaelis-Menten equation by non-linear regression using SIGMAPLOT® (SPSS Science, Chicago, Ill.). kcat values were calculated using the Vmax value, and are based on the protein concentration of the enzyme preparation and an estimate of purity determined from an evaluation of a Coomassie Blue stained SDS-polyacrylamide gel.

[4] = substrate: C[C@H](NC(=O)[C@H](CCCNC(=N)N)NC(=O)CCCCCNC(=O)CCCC[C@@H]1SC[C@@H]2NC(=O)N[C@@H]21)C(=O)N[C@@H](Cc1c[nH]cn1)C(=O)N[C@@H](CCC(=O)O)C(=O)N[C@@H](CCC(=O)O)C(=O)N[C@@H](CCC(=O)O)C(=O)N[C@@H](Cc1ccc(O)cc1)C(=O)N[C@@H](Cc1c[nH]cn1)C(=O)N[C@@H](Cc1ccccc1)C(=O)N[C@@H](Cc1ccccc1)C(=O)N[C@@H](Cc1ccccc1)C(=O)N[C@@H](C)C(=O)N[C@@H](CCCCN)C(=O)N[C@@H](CCCCN)C(=O)N[C@@H](CCCCN)C(N)=O; assay: as above; conditions: other: ErbB-4; Km for peptide; ATP concentration >10 × Km (200 μM ATP); pH 7.5; 23.0 °C
Procedure: as §2, §3

[5] = substrate: CC[C@H](C)[C@H](NC(=O)[C@H](CCC(=O)O)NC(=O)[C@H](CCC(=O)O)NC(=O)[C@H](Cc1c[nH]cn1)NC(=O)[C@H](C)NC(=O)[C@H](CCCNC(=N)N)NC(=O)CCCCCNC(=O)CCCC[C@@H]1SC[C@@H]2NC(=O)N[C@@H]21)C(=O)N[C@@H](Cc1ccc(O)cc1)C(=O)N[C@@H](Cc1c[nH]cn1)C(=O)N[C@@H](Cc1ccccc1)C(=O)N[C@@H](Cc1ccccc1)C(=O)N[C@@H](Cc1ccccc1)C(=O)N[C@@H](C)C(=O)N[C@@H](CCCCN)C(=O)N[C@@H](CCCCN)C(=O)N[C@@H](CCCCN)C(N)=O; assay: as above; conditions: other: ErbB-4; Km for peptide; ATP concentration >10 × Km (200 μM ATP); pH 7.5; 23.0 °C
Procedure: as §2, §3

[6] = substrate: CC[C@H](C)[C@H](NC(=O)[C@H](Cc1ccccc1)NC(=O)[C@H](Cc1c[nH]cn1)NC(=O)[C@H](Cc1ccc(O)cc1)NC(=O)[C@H](CCC(=O)O)NC(=O)[C@H](CCC(=O)O)NC(=O)[C@H](CCC(=O)O)NC(=O)[C@H](Cc1c[nH]cn1)NC(=O)[C@H](C)NC(=O)[C@H](CCCNC(=N)N)NC(=O)CCCCCNC(=O)CCCC[C@@H]1SC[C@@H]2NC(=O)N[C@@H]21)C(=O)N[C@@H](Cc1ccccc1)C(=O)N[C@@H](C)C(=O)N[C@@H](CCCCN)C(=O)N[C@@H](CCCCN)C(=O)N[C@@H](CCCCN)C(N)=O; assay: as above; conditions: other: ErbB-4; Km for peptide; ATP concentration >10 × Km (200 μM ATP); pH 7.5; 23.0 °C
Procedure: as §2, §3

B1: ErbB-4 (Homo sapiens) (protein)
chain: QSVCAGTENKLSSLSDLEQQYRALRKYYENCEVVMGNLEITSIEHNRDLSFLRSVREVTGYVLVALNQFRYLPLENLRIIRGTKLYEDRYALAIFLNYRKDGNFGLQELGLKNLTEILNGGVYVDQNKFLCYADTIHWQDIVRNPWPSNLTLVSTNGSSGCGRCHKSCTGRCWGPTENHCQTLTRTVCAEQCDGRCYGPYVSDCCHRECAGGCSGPKDTDCFACMNFNDSGACVTQCPQTFVYNPTTFQLEHNFNAKYTYGAFCVKKCPHNFVVDSSSCVRACPSSKMEVEENGIKMCKPCTDICPKACDGIGTGSLMSAQTVDSSNIDKFINCTKINGNLIFLVTGIHGDPYNAIEAIDPEKLNVFRTVREITGFLNIQSWPPNMTDFSVFSNLVTIGGRVLYSGLSLLILKQQGITSLQFQSLKEISAGNIYITDNSNLCYYHTINWTTLFSTINQRIVIRDNRKAENCTAEGMVCNHLCSSDGCWGPGPDQCLSCRRFSRGRICIESCNLYDGEFREFENGSICVECDPQCEKMEDGLLTCHGPGPDNCTKCSHFKDGPNCVEKCPDGLQGANSFIFKYADPDRECHPCHPNCTQGCNGPTSHDCIYYPWTGHSTLPQHARTPLIAAGVIGGLFILVIVGLTFAVYVRRKSIKKKRALRRFLETELVEPLTPSGTAPNQAQLRILKETELKRVKVLGSGAFGTVYKGIWVPEGETVKIPVAIKILNETTGPKANVEFMDEALIMASMDHPHLVRLLGVCLSPTIQLVTQLMPHGCLLEYVHEHKDNIGSQLLLNWCVQIAKGMMYLEERRLVHRDLAARNVLVKSPNHVKITDFGLARLLEGDEKEYNADGGKMPIKWMALECIHYRKFTHQSDVWSYGVTIWELMTFGGKPYDGIPTREIPDLLEKGERLPQPPICTIDVYMVMVKCWMIDADSRPKFKELAAEFSRMARDPQRYLVIQGDDRMKLPSPNDSKFFQNLLDEEDLEDMMDAEEYLVPQAFNIPPPIYTSRARIDSNRSEIGHSPPPAYTPMSGNQFVYRDGGFAAEQGVSVPYRAPTSTIPEAPVAQGATAEIFDDSCCNGTLRKPVAPHVQEDSSTQRYSADPTVFAPERSPRGELDEEGYMTPMRDKPKQEYLNPVEENPFVSRRKNGDLQALDNPEYHNASNGPPKAEDEYVNEPLYLNTFANTLGKAEYLKNNILSMPEKAKKAFDNPDYWNHSLPPRSTLQHPDYLQEYSTKYFYKQNGRIRPIVAENPEYLSEFSLKPGTVLPPPPYRHRNTVV
With B1 the Km [1] was 144 µM, the kcat [1] was 0.0767 s⁻¹ and the kcat/Km [1] was 533 M⁻¹ s⁻¹. For the same protein, the Km [2] was 41 µM, the kcat [2] was 0.105 s⁻¹ and the kcat/Km [2] was 2500 M⁻¹ s⁻¹. It also gave a Km [3] of 37.6 µM, a kcat [3] of 0.0767 s⁻¹ and a kcat/Km [3] of 2000 M⁻¹ s⁻¹. The Km [4] was 6 µM, the kcat [4] was 0.015 s⁻¹ and the kcat/Km [4] was 2500 M⁻¹ s⁻¹. The Km [5] was 8 µM, the kcat [5] was 0.0683 s⁻¹ and the kcat/Km [5] was 8500 M⁻¹ s⁻¹. The Km [6] was 12.5 µM, the kcat [6] was 0.0217 s⁻¹ and the kcat/Km [6] was 1670 M⁻¹ s⁻¹.
